The target in this assay is T1, Sec23a/Sec24a (lacking residues 1–340) (human, UniProt Q15436 1-765; O95486 341-1093).
T1 construct: Sec23a, human, full length (pFastBac1 vector); Sec24a, human, lacking residues 1-340; The results call the protein of the pull-downs 'Sec24a' or 'Sec24', the methods 'COPII protein'; also called COPII coat proteins Sec23a/Sec24a; COPII protein; source: Hi5 insect cells (baculovirus made in Sf9), purified (HisTrap, ion exchange, SEC)
As to the kind of experiment: pull-down; competition: phosphorylated GST-STING CTT on glutathione Sepharose 4B beads, IRF3 with Sec24; 20 mM HEPES-Na pH 7.4, 200 mM NaCl, 4 mM DTT, 0.1% Triton X-100, 4 °C; SDS-PAGE. The following applies: both partners purified.

Ends that are not written are not given here.

T1 sequence (Q15436 whole entry, chain 1 of 2, the tested form may be a part): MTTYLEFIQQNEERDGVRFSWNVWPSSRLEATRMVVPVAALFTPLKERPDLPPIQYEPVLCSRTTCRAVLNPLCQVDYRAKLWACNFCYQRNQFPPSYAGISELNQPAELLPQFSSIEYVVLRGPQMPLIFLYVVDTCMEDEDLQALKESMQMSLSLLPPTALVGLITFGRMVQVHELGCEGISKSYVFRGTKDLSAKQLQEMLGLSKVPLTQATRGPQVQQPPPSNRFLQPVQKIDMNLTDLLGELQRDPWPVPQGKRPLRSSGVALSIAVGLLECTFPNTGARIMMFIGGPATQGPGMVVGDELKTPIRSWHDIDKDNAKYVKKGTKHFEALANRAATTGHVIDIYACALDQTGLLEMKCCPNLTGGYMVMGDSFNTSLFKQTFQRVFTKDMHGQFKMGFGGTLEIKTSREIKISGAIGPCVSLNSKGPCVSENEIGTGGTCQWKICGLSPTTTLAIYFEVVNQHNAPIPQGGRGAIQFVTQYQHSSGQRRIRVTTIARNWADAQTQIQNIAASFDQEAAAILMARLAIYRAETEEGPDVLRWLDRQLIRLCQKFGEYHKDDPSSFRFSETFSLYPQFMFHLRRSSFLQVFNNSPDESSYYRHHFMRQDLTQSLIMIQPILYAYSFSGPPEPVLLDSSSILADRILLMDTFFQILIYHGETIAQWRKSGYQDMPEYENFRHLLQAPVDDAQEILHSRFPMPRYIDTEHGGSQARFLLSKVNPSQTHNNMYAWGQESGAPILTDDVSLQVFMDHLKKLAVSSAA
T1 sequence (O95486 341-1093, chain 2 of 2): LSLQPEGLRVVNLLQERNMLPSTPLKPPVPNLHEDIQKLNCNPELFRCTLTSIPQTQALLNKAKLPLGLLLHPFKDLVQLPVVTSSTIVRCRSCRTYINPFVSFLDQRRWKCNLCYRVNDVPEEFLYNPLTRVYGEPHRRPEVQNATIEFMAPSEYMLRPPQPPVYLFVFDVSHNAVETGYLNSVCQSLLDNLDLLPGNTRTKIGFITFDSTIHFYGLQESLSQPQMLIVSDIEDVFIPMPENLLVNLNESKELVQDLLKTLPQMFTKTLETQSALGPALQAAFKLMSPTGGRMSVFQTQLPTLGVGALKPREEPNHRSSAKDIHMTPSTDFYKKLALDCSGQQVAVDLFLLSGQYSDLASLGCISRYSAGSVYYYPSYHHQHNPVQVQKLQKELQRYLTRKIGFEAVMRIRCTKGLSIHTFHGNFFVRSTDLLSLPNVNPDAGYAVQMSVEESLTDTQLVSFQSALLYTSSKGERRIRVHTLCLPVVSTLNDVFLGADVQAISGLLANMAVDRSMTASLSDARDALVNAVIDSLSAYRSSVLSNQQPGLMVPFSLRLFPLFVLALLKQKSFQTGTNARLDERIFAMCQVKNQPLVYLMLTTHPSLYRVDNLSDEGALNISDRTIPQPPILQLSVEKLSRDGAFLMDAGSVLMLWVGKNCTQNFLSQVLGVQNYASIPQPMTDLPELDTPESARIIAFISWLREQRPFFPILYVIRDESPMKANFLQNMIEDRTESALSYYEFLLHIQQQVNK

B1: GST‐tagged human STING CTT (residue number: 335–379), phosphorylated (domain or fragment, UniProt Q86WV6 335-379, looked up)
chain: QEEKEEVTVGSLKTSAVPSTSTMSQEPELLISGMEKPLPLRTDFS
modifications: also: GST-tagged, phosphorylated by TBK1, sites not given here
notes: STING, human, C-terminal tail, residues 335-379; also called phosphorylated STING CTT; phosphorylated GST‐STING protein; source: phosphorylated in vitro by GST-tagged human TBK1, used directly; not shown: GST, N-terminal, kept
Take B1: the binding result was “binds”.

For the origin of these results see paper PMC12463132 (Advanced Science, 2025).
